Test results from US20180009871A1 (INTARCIA THERAPEUTICS, published 2018).
Where no end group is shown, it is not given here. [ ]: non-standard residue; d: D form. Aib = CC(C)(N)C(=O)O

B1: Compound A30 (peptide)
peptide: YSHGTFTSDYSKYLD[Aib]KRAQEFV[Aib]WLEDEPSKGAPPPS-OH
modifications: N-terminus assumed
SMILES: CC(C)C[C@H](NC(=O)[C@H](Cc1ccc(O)cc1)NC(=O)[C@H](CCCCN)NC(=O)[C@H](CO)NC(=O)[C@H](Cc1ccc(O)cc1)NC(=O)[C@H](CC(=O)O)NC(=O)[C@H](CO)NC(=O)[C@@H](NC(=O)[C@H](Cc1ccccc1)NC(=O)[C@@H](NC(=O)CNC(=O)[C@H](Cc1c[nH]cn1)NC(=O)[C@H](CO)NC(=O)[C@@H](N)Cc1ccc(O)cc1)[C@@H](C)O)[C@@H](C)O)C(=O)N[C@@H](CC(=O)O)C(=O)NC(C)(C)C(=O)N[C@@H](CCCCN)C(=O)N[C@@H](CCCNC(=N)N)C(=O)N[C@@H](C)C(=O)N[C@@H](CCC(N)=O)C(=O)N[C@@H](CCC(=O)O)C(=O)N[C@@H](Cc1ccccc1)C(=O)N[C@H](C(=O)NC(C)(C)C(=O)N[C@@H](Cc1c[nH]c2ccccc12)C(=O)N[C@@H](CC(C)C)C(=O)N[C@@H](CCC(=O)O)C(=O)N[C@@H](CC(=O)O)C(=O)N[C@@H](CCC(=O)O)C(=O)N1CCC[C@H]1C(=O)N[C@@H](CO)C(=O)N[C@@H](CCCCN)C(=O)NCC(=O)N[C@@H](C)C(=O)N1CCC[C@H]1C(=O)N1CCC[C@H]1C(=O)N1CCC[C@H]1C(=O)N[C@@H](CO)C(=O)O)C(C)C
B2: Compound A29 (peptide)
peptide: YSHGTFTSDYSKYLD[Aib]KRAQEFV[Aib]WLEDEPKSGAPPPS-OH
modifications: N-terminus assumed
SMILES: CC(C)C[C@H](NC(=O)[C@H](Cc1ccc(O)cc1)NC(=O)[C@H](CCCCN)NC(=O)[C@H](CO)NC(=O)[C@H](Cc1ccc(O)cc1)NC(=O)[C@H](CC(=O)O)NC(=O)[C@H](CO)NC(=O)[C@@H](NC(=O)[C@H](Cc1ccccc1)NC(=O)[C@@H](NC(=O)CNC(=O)[C@H](Cc1c[nH]cn1)NC(=O)[C@H](CO)NC(=O)[C@@H](N)Cc1ccc(O)cc1)[C@@H](C)O)[C@@H](C)O)C(=O)N[C@@H](CC(=O)O)C(=O)NC(C)(C)C(=O)N[C@@H](CCCCN)C(=O)N[C@@H](CCCNC(=N)N)C(=O)N[C@@H](C)C(=O)N[C@@H](CCC(N)=O)C(=O)N[C@@H](CCC(=O)O)C(=O)N[C@@H](Cc1ccccc1)C(=O)N[C@H](C(=O)NC(C)(C)C(=O)N[C@@H](Cc1c[nH]c2ccccc12)C(=O)N[C@@H](CC(C)C)C(=O)N[C@@H](CCC(=O)O)C(=O)N[C@@H](CC(=O)O)C(=O)N[C@@H](CCC(=O)O)C(=O)N1CCC[C@H]1C(=O)N[C@@H](CCCCN)C(=O)N[C@@H](CO)C(=O)NCC(=O)N[C@@H](C)C(=O)N1CCC[C@H]1C(=O)N1CCC[C@H]1C(=O)N1CCC[C@H]1C(=O)N[C@@H](CO)C(=O)O)C(C)C
B3: Compound A28 (peptide)
peptide: YSHGTFTSDYSKYLD[Aib]KRAQEFV[Aib]WLEDEGPSSGAPPPS-OH
modifications: N-terminus assumed
SMILES: CC(C)C[C@H](NC(=O)[C@H](Cc1ccc(O)cc1)NC(=O)[C@H](CCCCN)NC(=O)[C@H](CO)NC(=O)[C@H](Cc1ccc(O)cc1)NC(=O)[C@H](CC(=O)O)NC(=O)[C@H](CO)NC(=O)[C@@H](NC(=O)[C@H](Cc1ccccc1)NC(=O)[C@@H](NC(=O)CNC(=O)[C@H](Cc1c[nH]cn1)NC(=O)[C@H](CO)NC(=O)[C@@H](N)Cc1ccc(O)cc1)[C@@H](C)O)[C@@H](C)O)C(=O)N[C@@H](CC(=O)O)C(=O)NC(C)(C)C(=O)N[C@@H](CCCCN)C(=O)N[C@@H](CCCNC(=N)N)C(=O)N[C@@H](C)C(=O)N[C@@H](CCC(N)=O)C(=O)N[C@@H](CCC(=O)O)C(=O)N[C@@H](Cc1ccccc1)C(=O)N[C@H](C(=O)NC(C)(C)C(=O)N[C@@H](Cc1c[nH]c2ccccc12)C(=O)N[C@@H](CC(C)C)C(=O)N[C@@H](CCC(=O)O)C(=O)N[C@@H](CC(=O)O)C(=O)N[C@@H](CCC(=O)O)C(=O)NCC(=O)N1CCC[C@H]1C(=O)N[C@@H](CO)C(=O)N[C@@H](CO)C(=O)NCC(=O)N[C@@H](C)C(=O)N1CCC[C@H]1C(=O)N1CCC[C@H]1C(=O)N1CCC[C@H]1C(=O)N[C@@H](CO)C(=O)O)C(C)C
B4: Compound A31 (peptide)
peptide: YSHGTFTSDYSKYLD[Aib]KRAQEFV[Aib]WLEDEPESGAPPPS-OH
modifications: N-terminus assumed
SMILES: CC(C)C[C@H](NC(=O)[C@H](Cc1ccc(O)cc1)NC(=O)[C@H](CCCCN)NC(=O)[C@H](CO)NC(=O)[C@H](Cc1ccc(O)cc1)NC(=O)[C@H](CC(=O)O)NC(=O)[C@H](CO)NC(=O)[C@@H](NC(=O)[C@H](Cc1ccccc1)NC(=O)[C@@H](NC(=O)CNC(=O)[C@H](Cc1c[nH]cn1)NC(=O)[C@H](CO)NC(=O)[C@@H](N)Cc1ccc(O)cc1)[C@@H](C)O)[C@@H](C)O)C(=O)N[C@@H](CC(=O)O)C(=O)NC(C)(C)C(=O)N[C@@H](CCCCN)C(=O)N[C@@H](CCCNC(=N)N)C(=O)N[C@@H](C)C(=O)N[C@@H](CCC(N)=O)C(=O)N[C@@H](CCC(=O)O)C(=O)N[C@@H](Cc1ccccc1)C(=O)N[C@H](C(=O)NC(C)(C)C(=O)N[C@@H](Cc1c[nH]c2ccccc12)C(=O)N[C@@H](CC(C)C)C(=O)N[C@@H](CCC(=O)O)C(=O)N[C@@H](CC(=O)O)C(=O)N[C@@H](CCC(=O)O)C(=O)N1CCC[C@H]1C(=O)N[C@@H](CCC(=O)O)C(=O)N[C@@H](CO)C(=O)NCC(=O)N[C@@H](C)C(=O)N1CCC[C@H]1C(=O)N1CCC[C@H]1C(=O)N1CCC[C@H]1C(=O)N[C@@H](CO)C(=O)O)C(C)C
B5: Compound A32 (peptide)
peptide: YTHGTFTSDYSKWLD[Aib]KRAQEFV[Aib]WLEDEPSSGAPPPS-OH
modifications: N-terminus assumed
SMILES: CC(C)C[C@H](NC(=O)[C@H](Cc1c[nH]c2ccccc12)NC(=O)[C@H](CCCCN)NC(=O)[C@H](CO)NC(=O)[C@H](Cc1ccc(O)cc1)NC(=O)[C@H](CC(=O)O)NC(=O)[C@H](CO)NC(=O)[C@@H](NC(=O)[C@H](Cc1ccccc1)NC(=O)[C@@H](NC(=O)CNC(=O)[C@H](Cc1c[nH]cn1)NC(=O)[C@@H](NC(=O)[C@@H](N)Cc1ccc(O)cc1)[C@@H](C)O)[C@@H](C)O)[C@@H](C)O)C(=O)N[C@@H](CC(=O)O)C(=O)NC(C)(C)C(=O)N[C@@H](CCCCN)C(=O)N[C@@H](CCCNC(=N)N)C(=O)N[C@@H](C)C(=O)N[C@@H](CCC(N)=O)C(=O)N[C@@H](CCC(=O)O)C(=O)N[C@@H](Cc1ccccc1)C(=O)N[C@H](C(=O)NC(C)(C)C(=O)N[C@@H](Cc1c[nH]c2ccccc12)C(=O)N[C@@H](CC(C)C)C(=O)N[C@@H](CCC(=O)O)C(=O)N[C@@H](CC(=O)O)C(=O)N[C@@H](CCC(=O)O)C(=O)N1CCC[C@H]1C(=O)N[C@@H](CO)C(=O)N[C@@H](CO)C(=O)NCC(=O)N[C@@H](C)C(=O)N1CCC[C@H]1C(=O)N1CCC[C@H]1C(=O)N1CCC[C@H]1C(=O)N[C@@H](CO)C(=O)O)C(C)C

The binders below were run against human glucagon receptor (GCGR) (human, UniProt P47871 26-477) (assay: cell-based or functional assay).
In the case of B1, the “hGCGR pEC50 (cAMP)” value is reported as 10.9 pEC50. In the case of B2, the “hGCGR pEC50 (cAMP)” value is reported as 11.1 pEC50. B3 was tested, and the “hGCGR pEC50 (cAMP)” value was 12.2 pEC50. In the case of B4, the “hGCGR pEC50 (cAMP)” value is reported as 11.7 pEC50. For B5, the “hGCGR pEC50 (cAMP)” value was 12.5 pEC50.

The binders below were run against human GLP-1 receptor (GLP-1R) (human, UniProt P43220 24-463) (assay: cell-based or functional assay).
Sequence of human GLP-1 receptor (GLP-1R) (P43220 24-463): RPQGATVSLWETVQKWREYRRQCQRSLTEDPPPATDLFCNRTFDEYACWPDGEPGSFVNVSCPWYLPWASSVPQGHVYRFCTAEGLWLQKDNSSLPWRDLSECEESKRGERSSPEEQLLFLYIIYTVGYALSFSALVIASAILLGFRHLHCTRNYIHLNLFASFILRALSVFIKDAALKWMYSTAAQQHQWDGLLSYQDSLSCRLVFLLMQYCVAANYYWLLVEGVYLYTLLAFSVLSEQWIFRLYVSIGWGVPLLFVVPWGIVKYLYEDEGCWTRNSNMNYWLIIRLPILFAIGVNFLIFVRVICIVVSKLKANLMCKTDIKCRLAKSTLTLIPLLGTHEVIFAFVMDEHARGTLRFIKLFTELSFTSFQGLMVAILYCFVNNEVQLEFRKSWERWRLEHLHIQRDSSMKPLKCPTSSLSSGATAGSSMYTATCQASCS
For B1, the “hGLP1 pEC50 (cAMP)” value was under 9 pEC50. With B2 the “hGLP1 pEC50 (cAMP)” value was under 9 pEC50. In the case of B3, the “hGLP1 pEC50 (cAMP)” value is reported as under 9 pEC50. In the case of B4, the “hGLP1 pEC50 (cAMP)” value is reported as under 9 pEC50. In the case of B5, the “hGLP1 pEC50 (cAMP)” value is reported as under 9 pEC50.
